Source: patent publication US20180203016A1 (UCB, published 2018)

Experiments:
[1] = target: TNFα (fused trimer) - AVI Tag, biotinylated, in the presence of compound (3); assay: TR-FRET, 7.5 nM proteins, compound (3) up to 25 µM; partial loss of receptor binding
[2] = target: TNFα (fused trimer) - AVI Tag, biotinylated, in the presence of compound (4); assay: TR-FRET, 7.5 nM proteins, compound (4) up to 25 µM; partial loss of receptor binding
[3] = target: T1, soluble form of mouse TNFα (VC 6535) in complex with compound (1) (mouse, UniProt P06804 89-235); assay: X-ray crystallography, 3.15 Å
T1 construct: also called murine TNFα; trimer-compound complex
T1 sequence: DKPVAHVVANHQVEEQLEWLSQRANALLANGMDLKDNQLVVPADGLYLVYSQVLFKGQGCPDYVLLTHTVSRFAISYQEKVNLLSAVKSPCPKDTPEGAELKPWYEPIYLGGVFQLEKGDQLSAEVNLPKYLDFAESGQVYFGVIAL
Protocol: The final purified ternary complex was concentrated to 18.5 mg/ml and immediately used in crystallization trials.
The ternary complex was crystallized by sitting drop vapor diffusion by mixing 0.5 μl of complex with 0.5 μl of 800 mM sodium potassium tartrate, 0.5% PEG5000 MME, 100 mM Tris pH 8.5 over 100 μl of the same crystallization solution. Crystals were harvested for data collection approximately 2 months after initial set up. They were briefly soaked in paraffin oil and frozen directly in liquid nitrogen for data collection on Aug. 17, 2012 at Argonne Photon Source, beamline 21-IDF.

[4] = target: T2, fused human TNFα trimer in complex with compound (5) (human, UniProt P01375 77-233; P01375 86-233; P01375 86-233, limits assumed); assay: analytical SEC (Superdex 200HR 10/300), Abs 280 nm against retention (CV); 3.5 fold excess of TNFR1 over trimer preincubated with 200 µM compound (5)
T2 construct: also called trimer-compound complex
Protocol: The final concentration of DMSO was 1.0%. The mixture was incubated for 1 hour at 22° C.

[5] = target: T3, fused human TNFα trimer in complex with compound (2) (human, UniProt P01375 77-233; P01375 86-233; P01375 86-233, limits assumed); assay: analytical SEC (HPLC, TSK G3000SW), Abs 280 nm against retention time; 3.2 fold excess of TNFR1 over fused TNFα trimer preincubated with 90, 240, 465 or 690 µM compound (2) [D00007 Fig. 5(Cont.]
T3 construct: also called trimer-compound complex; compound-trimer complex
Protocol: The final concentration of DMSO was 0.25%. The mixture was incubated for 1 hour at 22° C.

T3 sequence (P01375 other isoform, or with tags, fused parts or gaps limits assumed): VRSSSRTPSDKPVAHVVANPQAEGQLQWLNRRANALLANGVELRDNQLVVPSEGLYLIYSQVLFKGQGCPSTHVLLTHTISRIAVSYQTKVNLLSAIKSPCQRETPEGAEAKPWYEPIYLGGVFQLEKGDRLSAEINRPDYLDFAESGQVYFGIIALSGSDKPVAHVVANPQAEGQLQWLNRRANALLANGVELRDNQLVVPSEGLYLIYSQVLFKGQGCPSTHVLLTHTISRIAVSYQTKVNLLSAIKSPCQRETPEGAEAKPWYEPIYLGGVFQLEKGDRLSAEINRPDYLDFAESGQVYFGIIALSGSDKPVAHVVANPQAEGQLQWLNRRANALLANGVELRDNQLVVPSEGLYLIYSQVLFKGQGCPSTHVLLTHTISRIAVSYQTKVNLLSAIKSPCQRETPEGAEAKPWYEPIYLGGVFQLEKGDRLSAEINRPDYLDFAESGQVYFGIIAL
T2 sequence (P01375 other isoform, or with tags, fused parts or gaps limits assumed): as above

TNFR1(ECD)-6xLysine-Human single chain Fc, Alexa Fluor 488 conjugated (from UniProt P19438 30-211) (Fc fusion)
maximal inhibition of FRET signal [1]: 29%
maximal inhibition of FRET signal [2]: 36%

B1: extracellular domain of human TNFR1 (VC 5602) (receptor)
chain: GSVCPQGKYIHPQDNSICCTKCHKGTYLYNDCPGPGQDTDCRECESGSFTASENHLRHCLSCSKCRKEMGQVEISSCTVDRDTVCGCRKNQYRHYWSENLFQCFNCSLCLNGTVHLSCQEKQNTVCTCHAGFFLRENECVSSSN
notes: Expressed in baculovirus infected insect cells
binding result [3]: binds

B2: Human TNFR1 (V43-N184)(N54D, C182S) (receptor, UniProt P19438 43-184, looked up)
chain: VCPQGKYIHPQDNSICCTKCHKGTYLYNDCPGPGQDTDCRECESGSFTASENHLRHCLSCSKCRKEMGQVEISSCTVDRDTVCGCRKNQYRHYWSENLFQCFNCSLCLNGTVHLSCQEKQNTVCTCHAGFFLRENECVSSSN
notes: also called receptor
binding result [4]: binds
binding result [5]: binds
